In US20070031511A1, “Method of treatment” (priority 2003, published 2007):

Molecular target: Ggly receptor on IMGE-5 cells
Assay: cell-based or functional assay

In the case of pentapeptide E5, the ED50 (nM), proliferation of IMGE cells, thymidine uptake is reported as 1.4 nM.
